{"source": "patent US20180148497A1", "about": "(DUKE UNIVERSITY, published 2018)", "binders": {"B1": {"name": "HIV-1 × Fluorescein Bi-Specific Diabody (A32 × 4420) (bispecific antibody)", "chain 1": "QSALTQPPSASGSPGQSVTISCTGTSSDVGGYNYVSWYQHHPGKAPKLIISEVNNRPSGVPDRFSGSKSGNTASLTVSGLQAEDEAEYYCSSYTDIHNFVFGGGTKLTVLGGGSGGGGEVKLDETGGGLVQPGRPMKLSCVASGFTFSDYWMNWVRQSPEKGLEWVAQIRNKPYNYETYYSDSVKGRFTISRDDSKSSVYLQMNNLRVEDMGIYYCTGSYYGMDYWGQGTSVTVSSGGCGGGEVAALEKEVAALEKEVAALEKEVAALEK", "chain 2": "DVVMTQTPFSLPVSLGDQASISCRSSQSLVHSNGNTYLRWYLQKPGQSPKVLIYKVSNRFSGVPDRFSGSGSGTDFTLKISRVEAEDLGVYFCSQSTHVPWTFGGGTKLEIKGGGSGGGGQVQLQESGPGLVKPSQTLSLSCTVSGGSSSSGAHYWSWIRQYPGKGLEWIGYIHYSGNTYYNPSLKSRITISQHTSENQFSLKLNSVTVADTAVYYCARGTRLRTLRNAFDIWGQGTLVTVSSGGCGGGKVAALKEKVAALKEKVAALKEKVAALKE"}, "B2": {"name": "HIV-1 × Fluorescein Bi-Specific Diabody (7B2 × 4420) (bispecific antibody)", "chain 1": "DIVMTQSPDSLAVSPGERATIHCKSSQTLLYSSNNRHSIAWYQQRPGQPPKLLLYWASMRLSGVPDRFSGSGSGTDFTLTINNLQAEDVAIYYCHQYSSHPPTFGHGTRVEIKGGGSGGGGEVKLDETGGGLVQPGRPMKLSCVASGFTFSDYWMNWVRQSPEKGLEWVAQIRNKPYNYETYYSDSVKGRFTISRDDSKSSVYLQMNNLRVEDMGIYYCTGSYYGMDYWGQGTSVTVSSGGCGGGEVAALEKEVAALEKEVAALEKEVAALEK", "chain 2": "DVVMTQTPFSLPVSLGDQASISCRSSQSLVHSNGNTYLRWYLQKPGQSPKVLIYKVSNRFSGVPDRFSGSGSGTDFTLKISRVEAEDLGVYFCSQSTHVPWTFGGGTKLEIKGGGSGGGGQVQLVQSGGGVFKPGGSLRLSCEASGFTFTEYYMTWVRQAPGKGLEWLAYISKNGEYSKYSPSSNGRFTISRDNAKNSVFLQLDRLSADDTAVYYCARADGLTYFSELLQYIFDLWGQGARVTVSSGGCGGGKVAALKEKVAALKEKVAALKEKVAALKE"}, "B3": {"name": "HIV-1 × CD3 Bi-Specific Diabody (A32 × CD3) (bispecific antibody)", "chain 1": "QSALTQPPSASGSPGQSVTISCTGTSSDVGGYNYVSWYQHHPGKAPKLIISEVNNRPSGVPDRFSGSKSGNTASLTVSGLQAEDEAEYYCSSYTDIHNFVFGGGTKLTVLGGGSGGGGEVQLVESGGGLVQPGGSLRLSCAASGFTFSTYAMNWVRQAPGKGLEWVGRIRSKYNNYATYYADSVKGRFTISRDDSKNSLYLQMNSLKTEDTAVYYCVRHGNFGNSYVSWFAYWGQGTLVTVSSGGCGGGEVAALEKEVAALEKEVAALEKEVAALEK", "chain 2": "QAVVTQEPSLTVSPGGTVTLTCRSSTGAVTTSNYANWVQQKPGQAPRGLIGGTNKRAPWTPARFSGSLLGGKAALTITGAQAEDEADYYCALWYSNLWVFGGGTKLTVLGGGGSGGGGQVQLQESGPGLVKPSQTLSLSCTVSGGSSSSGAHYWSWIRQYPGKGLEWIGYIHYSGNTYYNPSLKSRITISQHTSENQFSLKLNSVTVADTAVYYCARGTRLRTLRNAFDIWGQGTLVTVSSGGCGGGKVAALKEKVAALKEKVAALKEKVAALKE", "notes": "Two-chain DART without Fc, with an interchain disulfide and E-coil/K-coil domains; also called A32×CD3 DART"}, "B4": {"name": "HIV-1 × CD3 Bi-Specific Diabody (7B2 × CD3) (bispecific antibody)", "chain 1": "DIVMTQSPDSLAVSPGERATIHCKSSQTLLYSSNNRHSIAWYQQRPGQPPKLLLYWASMRLSGVPDRFSGSGSGTDFTLTINNLQAEDVAIYYCHQYSSHPPTFGHGTRVEIKGGGSGGGGEVQLVESGGGLVQPGGSLRLSCAASGFTFSTYAMNWVRQAPGKGLEWVGRIRSKYNNYATYYADSVKGRFTISRDDSKNSLYLQMNSLKTEDTAVYYCVRHGNFGNSYVSWFAYWGQGTLVTVSSGGCGGGEVAALEKEVAALEKEVAALEKEVAALEK", "chain 2": "QAVVTQEPSLTVSPGGTVTLTCRSSTGAVTTSNYANWVQQKPGQAPRGLIGGTNKRAPWTPARFSGSLLGGKAALTITGAQAEDEADYYCALWYSNLWVFGGGTKLTVLGGGGSGGGGQVQLVQSGGGVFKPGGSLRLSCEASGFTFTEYYMTWVRQAPGKGLEWLAYISKNGEYSKYSPSSNGRFTISRDNAKNSVFLQLDRLSADDTAVYYCARADGLTYFSELLQYIFDLWGQGARVTVSSGGCGGGKVAALKEKVAALKEKVAALKEKVAALKE", "notes": "Two-chain DART without Fc; also called 7B2×CD3 DART"}}, "key": {"[1]": {"target": "T1, human CD3 on cells (primary human T cells; Jurkat 522-F/Y cells) (human, UniProt P07766 23-207)", "T1 construct": "whole, on cells; The other chains of the CD3 complex were also present on the cells; also called CD3ε; human CD3+ T cells", "T1 sequence (P07766 23-207)": "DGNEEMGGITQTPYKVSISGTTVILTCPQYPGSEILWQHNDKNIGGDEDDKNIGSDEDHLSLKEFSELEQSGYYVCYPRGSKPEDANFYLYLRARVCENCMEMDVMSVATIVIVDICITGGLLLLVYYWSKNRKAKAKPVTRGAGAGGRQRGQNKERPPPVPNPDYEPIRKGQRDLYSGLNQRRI", "assay": "flow cytometry on primary human T cells (Env- CD3+), biotinylated anti-EK antibody and streptavidin-PE [panel D. Human T Cells]"}, "[2]": {"target": "T2, HIV-1 Env, HXBc2, subtype B, expressed on Jurkat 522-F/Y cells (HIV-1 (HXBc2, subtype B), UniProt P04578 33-856)", "T2 construct": "whole, on cells; also called subtype B HXBc2 Env; HXBC2 Env", "assay": "flow cytometry on Jurkat-522 F/Y cells (Env+ CD3+), biotinylated anti-EK antibody and streptavidin-PE [panel F. Jurkat-522 F/Y Cells]"}, "[3]": {"target": "T2, HIV-1 Env, HXBc2, subtype B, expressed …", "assay": "cell-based or functional assay"}, "[4]": {"target": "T3, M.ConS gp140 CFI (HIV-1 group M consensus Env protein)", "T3 construct": "also called M.ConS gp140ΔCFI", "assay": "SPR (BIAcore 3000), Env protein over DART captured on immobilized CD3"}, "[5]": {"target": "T3, M.ConS gp140 CFI (HIV-1 group M …)", "assay": "SPR (BIAcore 3000), M.ConS gp140 over DART captured on immobilized CD3ε/δ, 1:1 Langmuir global fit"}, "[6]": {"target": "T1, human CD3 on cells (primary human T …)", "assay": "flow cytometry on primary human T cells (Env- CD3+), DART at 4 µg/mL, biotinylated anti-EK antibody and streptavidin-PE [panel D. Human T Cells]"}, "[7]": {"target": "JR-FL gp140 CF (HIV-1 Env protein) (HIV-1 (JR-FL))", "assay": "SPR (BIAcore 3000), Env protein over DART captured on immobilized CD3"}, "[8]": {"target": "JR-FL gp140 CF (HIV-1 Env protein) (HIV-1 (JR-FL))", "assay": "SPR (BIAcore 3000), JR-FL gp140 over DART captured on immobilized CD3ε/δ, 1:1 Langmuir global fit"}}, "data": [{"binder": "B1", "values": [{"measurement": "binding result", "setting": "[1]", "result": "no binding (tested: 4 µg/mL (single concentration))"}]}, {"binder": "B2", "values": [{"measurement": "binding result", "setting": "[1]", "result": "no binding (tested: 4 µg/mL (single concentration))"}, {"measurement": "binding result", "setting": "[2]", "result": "no binding (tested: 4 µg/mL (single concentration))"}]}, {"binder": "B3", "values": [{"measurement": "EC50 of redirected T-cell killing of Env+ Jurkat 522-F/Y GF cells, E:T 10:1, 48 hours, LUM assay", "setting": "[3]", "result": 0.172, "unit": "ng/mL"}, {"measurement": "EC50 of redirected T-cell killing of Env+ Jurkat 522-F/Y cells, E:T 10:1, 48 hours, LDH release assay", "setting": "[3]", "result": 0.23, "unit": "ng/mL"}, {"measurement": "Kd", "setting": "[4]", "result": 47.7, "unit": "nM"}, {"measurement": "koff", "setting": "[5]", "result": 0.00081, "unit": "s⁻¹"}, {"measurement": "kon", "setting": "[5]", "result": 17000, "unit": "M⁻¹ s⁻¹"}, {"measurement": "binding result", "setting": "[6]", "result": "binds"}]}, {"binder": "B4", "values": [{"measurement": "EC50 of redirected T-cell killing of Env+ Jurkat 522-F/Y GF cells, E:T 10:1, 48 hours, LUM assay", "setting": "[3]", "result": 0.147, "unit": "ng/mL"}, {"measurement": "EC50 of redirected T-cell killing of Env+ Jurkat 522-F/Y cells, E:T 10:1, 48 hours, LDH release assay", "setting": "[3]", "result": 0.16, "unit": "ng/mL"}, {"measurement": "Kd", "setting": "[7]", "result": 15.1, "unit": "nM"}, {"measurement": "koff", "setting": "[8]", "result": 0.00031, "unit": "s⁻¹"}, {"measurement": "kon", "setting": "[8]", "result": 20000, "unit": "M⁻¹ s⁻¹"}, {"measurement": "binding result", "setting": "[6]", "result": "binds"}]}]}
